Experimental data: patent US20190161555A1 (ALLIGATOR BIOSCIENCE, published 2019)

T1: Human OX40 (R&D Systems, 3388-OX) (human, UniProt P43489 29-216)
T1 construct: bought; also called OX40-Fc; Human OX40 (R&D systems, #3358_OX)
T1 sequence (looked up): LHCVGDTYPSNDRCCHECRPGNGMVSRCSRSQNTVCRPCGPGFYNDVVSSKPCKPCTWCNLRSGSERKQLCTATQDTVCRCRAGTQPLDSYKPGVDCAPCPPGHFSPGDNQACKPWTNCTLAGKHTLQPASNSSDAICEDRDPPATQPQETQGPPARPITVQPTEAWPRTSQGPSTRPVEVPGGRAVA

T2: murine OX40 (murine, UniProt P47741 20-211, limits assumed)
T2 construct: also called mouse OX40
T2 sequence (looked up): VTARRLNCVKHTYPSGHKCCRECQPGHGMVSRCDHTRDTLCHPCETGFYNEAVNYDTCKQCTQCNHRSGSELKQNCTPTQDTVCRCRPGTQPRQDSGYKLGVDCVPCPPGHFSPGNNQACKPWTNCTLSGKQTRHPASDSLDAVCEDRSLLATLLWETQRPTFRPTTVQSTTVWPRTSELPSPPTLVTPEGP

T3: human OX40 overexpressed on CHO cells (human, UniProt P43489 29-214; P25942 194-277)
T3 construct: extracellular domain;domain: transmembrane and intracellular part; also called hOX40; huOX40 (CHO)
T3 sequence (looked up): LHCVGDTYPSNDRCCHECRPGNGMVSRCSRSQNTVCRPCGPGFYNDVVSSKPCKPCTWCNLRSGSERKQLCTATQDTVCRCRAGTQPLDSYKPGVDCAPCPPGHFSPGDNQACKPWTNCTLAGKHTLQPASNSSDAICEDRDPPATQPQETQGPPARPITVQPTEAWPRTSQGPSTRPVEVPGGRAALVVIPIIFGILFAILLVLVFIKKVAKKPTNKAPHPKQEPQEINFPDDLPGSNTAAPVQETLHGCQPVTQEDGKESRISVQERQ

T4: Construct 84: full length OX40 (human, UniProt P43489 29-277)
T4 construct: whole, on cells
T4 sequence (looked up): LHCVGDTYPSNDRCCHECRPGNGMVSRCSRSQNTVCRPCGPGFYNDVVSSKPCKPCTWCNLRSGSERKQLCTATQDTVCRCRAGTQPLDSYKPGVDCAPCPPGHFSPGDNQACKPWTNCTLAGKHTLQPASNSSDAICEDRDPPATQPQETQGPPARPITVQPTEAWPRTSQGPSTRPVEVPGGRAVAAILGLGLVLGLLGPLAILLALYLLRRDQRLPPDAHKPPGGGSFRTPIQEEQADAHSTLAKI

T5: 5T4-Fc (human, UniProt Q13641 32-355, limits assumed)
T5 construct: obtained from Peter L. Stern, University of Manchester; also called h5T4-Fc; recombinant 5T4
T5 sequence (looked up): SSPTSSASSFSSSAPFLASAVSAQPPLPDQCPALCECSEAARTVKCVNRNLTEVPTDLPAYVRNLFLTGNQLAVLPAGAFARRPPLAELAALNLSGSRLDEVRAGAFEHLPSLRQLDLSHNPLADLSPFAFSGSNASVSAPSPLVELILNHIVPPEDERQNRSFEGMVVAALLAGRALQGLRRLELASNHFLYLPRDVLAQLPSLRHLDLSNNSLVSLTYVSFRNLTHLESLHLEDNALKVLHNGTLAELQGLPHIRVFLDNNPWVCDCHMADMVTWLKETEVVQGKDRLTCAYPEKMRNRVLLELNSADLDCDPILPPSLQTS


Columns and labels:
[1] = target: T1, Human OX40 (R&D Systems, 3388-OX); assay: ELISA, plates coated with human OX40, IgG
Method: (§1) ELISA plates were coated with human OX40 (R&D Systems, 3388-OX), CD40 (Ancell), or CD137 (R&D Systems) at 0.1 or 0.5 μg/ml. The ELISA plates were washed with PBST and then blocked with PBST+2% BSA for 1 h at room temperature and then washed again with PBST. The antibodies were added in dilution series to the ELISA plates for 1 h at room temperature and then washed with PBST. Binding was detected using goat anti human kappa light chain HRP, incubated for 1 h at room temperature. SuperSignal Pico Luminescent was used as substrate and luminescence was measured using Fluostar Optima.

murine OX40 = target: T2, murine OX40; assay: ELISA
CD40 (Ancell) = CD40 (Ancell) (UniProt P25942 21-193, limits assumed); assay: ELISA, CD40 coated
Method: as §1

CD137 (R&D Systems) = CD137 (R&D Systems) (UniProt Q07011 24-186, limits assumed); assay: ELISA, CD137 coated
Method: as §1

[2] = target: T3, human OX40 overexpressed on CHO cells; assay: flow cytometry on CHO cells overexpressing human OX40, anti-huIgG-PE detection, MFI
Method: The extracellular part of human OX40 was fused to the transmembrane and intracellular part of hCD40 and cloned into pcDNA3.0. The vector was subsequently stably transfected into CHO cells. […] For the assay, the transfected cells were incubated with the test antibodies and controls for 30 min at 4° C. and then detected with a-huIgG-PE (Jackson Immunoresearch) 30 min 4° C. Cells were analyzed by flow cytometry with FACS Verse (BD Biosciences).

[3] = target: T4, Construct 84: full length OX40; assay: flow cytometry, 293-F cells transfected with the construct
Method: The transfected cells were incubated with human OX40 antibodies, human OX40L (hOX40L, RnD Systems), mouse OX40L (mOX40L, RnD Systems) and controls for 30 min 4° C. and then detected with a-huIgG-PE (Jackson Immunoresearch) 30 min 4° C. Cells were analyzed with FACS Verse (BD Biosciences). Binding to the different chimeric constructs were calculated as relative (mean fluorescence intensity) MFI compared to the binding of the isotype control.

[4] = target: T1, Human OX40 (R&D Systems, 3388-OX); assay: SPR Biacore, human OX40 amine-coupled on CM5, antibody injected, 1:1 Langmuir
Method: Human OX40 (R&D systems, #3358_OX) was immobilized to the Biacore™ sensor chip, CM5, using conventional amine coupling. The tested antibodies and controls (serially diluted 1/3 or 1/2 100-2 nM) were analyzed for binding in HBS-P (GE, #BR-1003-68) at a flow rate of […]. The association was followed for 3 minutes and the dissociation for 20 minutes. Regeneration was performed twice using 50 mM NaOH for 60 seconds. The kinetic parameters and the affinity constants were calculated using 1:1 Langmuir model with drifting baseline. […] The kinetic parameters and the affinity constants were calculated using BIAevaluation 4.1 software.

5T4-Fc = target: T5, 5T4-Fc; assay: dual ELISA: OX40-Fc coated, detection with biotinylated 5T4-Fc and streptavidin-HRP, luminescence
Method: A dual ELISA was used to detect simultaneous binding of the two targets by the bispecific antibodies. ELISA plates were coated with OX40-Fc (R&D systems, #3388-OX, 0.5 μg/ml) over night at 4° C. followed by blocking with PBST+2% bovine serum albumin (BSA) for 1 h at room temperature (RT). […] Biotinylated 5T4-Fc (0.5 μg/ml), followed by HRP-labelled streptavidin (Pierce #21126) were used for detection. Super signal ELISA Pico Chemiluminescent Substrate (Thermo Scientific, #37069) was used as substrate and luminescence was measured using FLUOstar Optima.

[5] = target: Macaca mulatta OX40 on HEK cells (Macaca mulatta; human); assay: flow cytometry, macOX40-HEK cells; ends of the 95% confidence interval
Method: For the assay, the transfected cells were incubated with the test antibodies and controls for 30 min at 4° C. and then detected with a-huIgG-PE (Jackson Immunoresearch) 30 min 4° C. Cells were analyzed by flow cytometry with FACS Verse (BD Biosciences).

CD40 (Ancell), sequence (P25942 21-193 limits assumed): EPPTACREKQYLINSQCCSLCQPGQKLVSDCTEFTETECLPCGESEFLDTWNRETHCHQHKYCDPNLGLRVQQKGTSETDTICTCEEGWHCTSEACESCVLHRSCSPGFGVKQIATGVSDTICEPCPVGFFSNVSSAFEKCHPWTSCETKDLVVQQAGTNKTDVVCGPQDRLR
CD137 (R&D Systems), sequence (Q07011 24-186 limits assumed): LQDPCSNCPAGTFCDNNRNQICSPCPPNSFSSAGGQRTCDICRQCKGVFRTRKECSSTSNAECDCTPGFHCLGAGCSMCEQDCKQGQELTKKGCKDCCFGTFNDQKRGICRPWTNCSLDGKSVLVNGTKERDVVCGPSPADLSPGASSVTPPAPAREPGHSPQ

Binder	EC50 [1]	binding result (murine OX40)	binding result (CD40 (Ancell))	binding result (CD137 (R&D Systems))	EC50 (read off the curve) [2]	relative MFI [3]	Kd [4]	koff [4]	kon [4]	binding result (5T4-Fc)	EC50 [5]
1524/1525 (antibody, V domains shown, OX40 antibody, tested as IgG) VH: EVQLLESGGGLVQPGGSLRLSCAASGFTFGSYYMGWVRQAPGKGLEWVSSIGSYYGYTYYADSVKGRFTISRDNSKNTLYLQMNSLRAEDTAVYYCARHDYGALDYWGQGTLVTVSS VL: DIQMTQSPSSLSASVGDRVTITCRASQSISSYLNWYQQKPGKAPKLLIYAASSLQSGVPSRFSGSGSGTDFTLTISSLQPEDFATYYCQQYGPSGLFTFGQGTKLEIK	< 1000 pM	no binding	no binding	no binding	~0.05 µg/mL	31.4 fold over isotype control	811 pM	0.00139 s⁻¹	1.71e+06 M⁻¹ s⁻¹		
1166/1167 (antibody, V domains shown) VH: EVQLLESGGGLVQPGGSLRLSCAASGFTFGGYYMSWVRQAPGKGLEWVSAISGSGGSTYYADSVKGRFTISRDNSKNTLYLQMNSLRAEDTAVYYCARYDYASMDYWGQGTLVTVSS VL: DIQMTQSPSSLSASVGDRVTITCRASQSISSYLNWYQQKPGKAPKLLIYAASSLQSGVPSRFSGSGSGTDFTLTISSLQPEDFATYYCQQYYWYGLSTFGQGTKLEIK		no binding	no binding	no binding						no binding (tested: about 80 nM (log[conc ab] 1.9))	0.16 to 0.242 µg/mL
1164/1135 (antibody, V domains shown, OX40 antibody, tested as IgG) VH: EVQLLESGGGLVQPGGSLRLSCAASGFTFYGSSMYWVRQAPGKGLEWVSGIYSSGGYTSYADSVKGRFTISRDNSKNTLYLQMNSLRAEDTAVYYCARGVPHGYFDYWGQGTLVTVSS VL: not shown	< 1000 pM	no binding	no binding	no binding	~0.01 µg/mL	27.5 fold over isotype control	308 pM	7.73e-05 s⁻¹	251000 M⁻¹ s⁻¹		
